Where “and” joins values, the source holds several entries; their conditions need not be identical. Identical values can stand only once.
Biological target: recombinant SARS (1-1190) (Beta Lifescience, BLIT-0210) (SARS-CoV), P59594
Conditions: remark: other sources report otherwise

Row | Binder | O.D.
1 | clone 6D9 (antibody, V domains shown) VH: EVQLVESGGGLVQPGGSLRLSCAASGFTFTDYDMGWVRQAPGKGPEWVSLISGDSGNTWYDDSVKGRFTISRDNSKNTLYLQMNSLRAEDTAVYYCAKYRGTTKDYWGQGTLVTVSS | 0.389 O.D. and 0.386 O.D.
2 | clone 5E9 (antibody, V domains shown) VH: EVQLVESGGGLVQPGGSLRLSCAASGFTFTTYDMGWVRQAPGKGPEWVSLISSGGSNTWYDDSVKGRFTISRDNSKNTLYLQMNSLRAEDTAVYYCAKEKYPYSDCDYWGQGTLVTVSS | 0.294 O.D. and 0.278 O.D.
